The record followed here is PMC8065039.

For orientation: Kd means the equilibrium constant for the complex coming apart. Read a low Kd as a tighter complex.

This assay addresses CA521^FALA (human IgG4 monoclonal antibody with the F234A/L235A mutation) (human (from human antibody transgenic mice)). Description: BLI. (Biolayer interferometry detects binding as a change in optical thickness at a sensor tip.)

Sequence of CA521^FALA (human IgG4 monoclonal antibody with the F234A/L235A mutation) (human (from human antibody transgenic mice)) (heavy, as listed by the source, chain 1 of 2): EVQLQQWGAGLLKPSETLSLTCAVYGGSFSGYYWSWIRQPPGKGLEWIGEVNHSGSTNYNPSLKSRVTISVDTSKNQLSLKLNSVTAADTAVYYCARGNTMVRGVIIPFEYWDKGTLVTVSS
Sequence of CA521^FALA (human IgG4 monoclonal antibody with the F234A/L235A mutation) (human (from human antibody transgenic mice)) (light, as listed by the source, chain 2 of 2): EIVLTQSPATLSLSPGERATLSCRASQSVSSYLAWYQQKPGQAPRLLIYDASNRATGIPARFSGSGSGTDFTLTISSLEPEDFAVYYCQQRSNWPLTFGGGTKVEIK

Substance “SARS-CoV-2 RBD protein (40592-V05H, Sino Biological) (from UniProt P0DTC2) (domain or fragment)” came in with a Kd of 698 pM. In other words, the sub-nanomolar range.
